Assay results taken from patent US20160264649A1.

How the values were obtained:
Experiment in all cases: cell-based or functional assay
[1] = biological target: HIV-1 Env of isolate THR0.18 (HIV-1)
[2] = biological target: HIV-1 Env of isolate 98IN022 (HIV-1)
[3] = biological target: HIV-1 Env of isolate MGRM-Chronic-B-012 (HIV-1)
[4] = biological target: HIV-1 Env of isolate MGRM-Chronic-B-024 (HIV-1)
[5] = biological target: HIV-1 Env of isolate PVO.4 (HIV-1)
[6] = biological target: HIV-1 Env of isolate SF162 (HIV-1) (UniProt P19550)
[7] = biological target: HIV-1 Env of isolate QH0692.42 (HIV-1)
[8] = biological target: HIV-1 Env of isolate SC422661.8 (HIV-1)
[9] = biological target: HIV-1 Env of isolate 6535.3 (HIV-1)
[10] = biological target: HIV-1 Env of isolate MGRM-Chronic-B-001 (HIV-1)
[11] = biological target: HIV-1 Env of isolate MGRM-Chronic-B-004 (HIV-1)
[12] = biological target: HIV-1 Env of isolate APV_17 (HIV-1)
[13] = biological target: HIV-1 Env of isolate MGRM-Chronic-B-023 (HIV-1)
[14] = biological target: HIV-1 Env of isolate MGRM-Chronic-B-008 (HIV-1)
[15] = biological target: HIV-1 Env of isolate TRO.11 (HIV-1)
[16] = biological target: HIV-1 Env of isolate 93TH305 (HIV-1)
[17] = biological target: HIV-1 Env of isolate MGRM-Chronic-B-020 (HIV-1)
[18] = biological target: HIV-1 Env of isolate 92 BR 020 (HIV-1)
[19] = biological target: HIV-1 Env of isolate TRJ04551.58 (HIV-1)
[20] = biological target: HIV-1 Env of isolate 93IN905 (HIV-1)
[21] = biological target: HIV-1 Env of isolate MGRM-Chronic-B-002 (HIV-1)
[22] = biological target: HIV-1 Env of isolate JRFL (HIV-1)
[23] = biological target: HIV-1 Env of isolate MGRM-Chronic-B-011 (HIV-1)
[24] = biological target: HIV-1 Env of isolate 97ZA012 (HIV-1)
[25] = biological target: HIV-1 Env of isolate MGRM-Chronic-B-003 (HIV-1)
[26] = biological target: HIV-1 Env of isolate CAAN.A2 (HIV-1)
[27] = biological target: HIV-1 Env of isolate APV_13 (HIV-1)
[28] = biological target: HIV-1 Env of isolate JRCSF (HIV-1) (UniProt P20871)
[29] = biological target: HIV-1 Env of isolate APV_6 (HIV-1)
[30] = biological target: HIV-1 Env of isolate MGRM-Chronic-B-010 (HIV-1)
[31] = biological target: HIV-1 Env of isolate NL43 (HIV-1)
[32] = biological target: HIV-1 Env of isolate MGRM-Chronic-B-018 (HIV-1)
[33] = biological target: HIV-1 Env of isolate VLGCB3 (HIV-1)
[34] = biological target: HIV-1 Env of isolate 93MW959 (HIV-1)
[35] = biological target: HIV-1 Env of isolate MGRM-Chronic-B-017 (HIV-1)

Sequence of PGT-136 monoclonal antibody (5329_C19; 5366_P21) (VH): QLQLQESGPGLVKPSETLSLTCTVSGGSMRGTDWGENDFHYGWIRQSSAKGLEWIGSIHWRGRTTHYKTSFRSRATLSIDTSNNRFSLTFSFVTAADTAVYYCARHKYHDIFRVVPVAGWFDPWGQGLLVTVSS
Sequence of PGT-136 monoclonal antibody (5329_C19; 5366_P21) (VL): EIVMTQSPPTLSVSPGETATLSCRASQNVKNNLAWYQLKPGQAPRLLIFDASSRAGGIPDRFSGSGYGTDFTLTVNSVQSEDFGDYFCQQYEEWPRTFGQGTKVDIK
Sequence of PGT-137 monoclonal antibody (5345_I01) (VH): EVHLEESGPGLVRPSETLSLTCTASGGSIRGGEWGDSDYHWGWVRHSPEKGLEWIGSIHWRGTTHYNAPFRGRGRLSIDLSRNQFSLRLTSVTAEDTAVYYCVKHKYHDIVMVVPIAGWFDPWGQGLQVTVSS
Sequence of PGT-137 monoclonal antibody (5345_I01) (VL): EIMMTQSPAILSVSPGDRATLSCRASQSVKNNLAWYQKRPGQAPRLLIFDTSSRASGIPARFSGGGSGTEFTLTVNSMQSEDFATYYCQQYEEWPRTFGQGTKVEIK

Row | Substance | neutralization IC50 [1] | neutralization IC50 [2] | neutralization IC50 [3] | neutralization IC50 [4] | neutralization IC50 [5] | neutralization IC50 [6] | neutralization IC50 [7] | neutralization IC50 [8] | neutralization IC50 [9] | neutralization IC50 [10] | neutralization IC50 [11] | neutralization IC50 [12] | neutralization IC50 [13] | neutralization IC50 [14] | neutralization IC50 [15] | neutralization IC50 [16] | neutralization IC50 [17] | neutralization IC50 [18] | neutralization IC50 [19] | neutralization IC50 [20] | further results
1 | PGT-137 monoclonal antibody (5345_I01) | > 50 µg/mL | 0.408 µg/mL | > 50 µg/mL | > 50 µg/mL | > 50 µg/mL | 3.41 µg/mL | > 50 µg/mL | > 50 µg/mL | > 50 µg/mL | > 50 µg/mL | > 50 µg/mL | > 50 µg/mL | > 50 µg/mL | > 50 µg/mL | 9.35 µg/mL | > 50 µg/mL | 32.9 µg/mL | 7.81 µg/mL | > 50 µg/mL | 0.042 µg/mL | neutralization IC50 [21]: > 50 µg/mL; neutralization IC50 [22]: > 50 µg/mL; neutralization IC50 [23]: > 50 µg/mL; neutralization IC50 [24]: > 50 µg/mL; neutralization IC50 [25]: > 50 µg/mL; neutralization IC50 [26]: > 50 µg/mL; neutralization IC50 [27]: > 50 µg/mL; neutralization IC50 [28]: > 50 µg/mL; neutralization IC50 [29]: > 50 µg/mL; neutralization IC50 [30]: > 50 µg/mL; neutralization IC50 [31]: 17.4 µg/mL; neutralization IC50 [32]: > 50 µg/mL; neutralization IC50 [33]: 3.36 µg/mL; neutralization IC50 [34]: > 50 µg/mL; neutralization IC50 [35]: > 50 µg/mL
2 | PGT-128 monoclonal antibody (5114_A19) | > 50 µg/mL | 0.014 µg/mL | 0.026 µg/mL | > 50 µg/mL | 0.005 µg/mL | 0.007 µg/mL | 0.029 µg/mL | 1.58 µg/mL | 0.011 µg/mL | > 50 µg/mL | 0.009 µg/mL | 0.016 µg/mL | > 50 µg/mL | 0.143 µg/mL | 0.018 µg/mL | 0.006 µg/mL | 0.007 µg/mL | 0.009 µg/mL | 0.019 µg/mL | 0.009 µg/mL | neutralization IC50 [21]: 0.036 µg/mL; neutralization IC50 [22]: 0.007 µg/mL; neutralization IC50 [23]: 0.02 µg/mL; neutralization IC50 [24]: 0.019 µg/mL; neutralization IC50 [25]: 0.007 µg/mL; neutralization IC50 [26]: 1.48 µg/mL; neutralization IC50 [27]: 0.008 µg/mL; neutralization IC50 [28]: 0.003 µg/mL; neutralization IC50 [29]: 0.007 µg/mL; neutralization IC50 [30]: 0.004 µg/mL; neutralization IC50 [31]: > 50 µg/mL; neutralization IC50 [32]: 0.02 µg/mL; neutralization IC50 [33]: 0.012 µg/mL; neutralization IC50 [34]: 0.045 µg/mL; neutralization IC50 [35]: > 50 µg/mL
3 | PGT-136 monoclonal antibody (5329_C19; 5366_P21) | > 50 µg/mL | 13.6 µg/mL | 43.1 µg/mL | > 50 µg/mL | > 50 µg/mL | 0.482 µg/mL | > 50 µg/mL | > 50 µg/mL | > 50 µg/mL | > 50 µg/mL | > 50 µg/mL | > 50 µg/mL | > 50 µg/mL | > 50 µg/mL | 0.073 µg/mL | 20.2 µg/mL | > 50 µg/mL | 8.61 µg/mL | > 50 µg/mL | 0.011 µg/mL | neutralization IC50 [21]: > 50 µg/mL; neutralization IC50 [22]: > 50 µg/mL; neutralization IC50 [23]: > 50 µg/mL; neutralization IC50 [24]: > 50 µg/mL; neutralization IC50 [25]: > 50 µg/mL; neutralization IC50 [26]: > 50 µg/mL; neutralization IC50 [27]: > 50 µg/mL; neutralization IC50 [28]: > 50 µg/mL; neutralization IC50 [29]: > 50 µg/mL; neutralization IC50 [30]: > 50 µg/mL; neutralization IC50 [31]: 27.7 µg/mL; neutralization IC50 [32]: > 50 µg/mL; neutralization IC50 [33]: > 50 µg/mL; neutralization IC50 [34]: > 50 µg/mL; neutralization IC50 [35]: > 50 µg/mL
4 | PGT-130 monoclonal antibody (5147_N06) | > 50 µg/mL | > 50 µg/mL | 0.373 µg/mL | 5.78 µg/mL | 5.17 µg/mL | 0.007 µg/mL | > 50 µg/mL | > 50 µg/mL | 0.031 µg/mL | > 50 µg/mL | 0.01 µg/mL | 10.7 µg/mL | > 50 µg/mL | 5.18 µg/mL | 0.257 µg/mL | 0.021 µg/mL | 0.014 µg/mL | 1.4 µg/mL | 0.023 µg/mL | 0.02 µg/mL | neutralization IC50 [21]: > 50 µg/mL; neutralization IC50 [22]: 0.046 µg/mL; neutralization IC50 [23]: 0.153 µg/mL; neutralization IC50 [24]: 1.32 µg/mL; neutralization IC50 [25]: > 50 µg/mL; neutralization IC50 [26]: > 50 µg/mL; neutralization IC50 [27]: 0.052 µg/mL; neutralization IC50 [28]: 0.01 µg/mL; neutralization IC50 [29]: > 50 µg/mL; neutralization IC50 [30]: 0.006 µg/mL; neutralization IC50 [31]: > 50 µg/mL; neutralization IC50 [32]: 31.9 µg/mL; neutralization IC50 [33]: 4.6 µg/mL; neutralization IC50 [34]: 8.55 µg/mL; neutralization IC50 [35]: > 50 µg/mL
